The source of these data is patent publication US20070065429A1, “Nogo-receptor antagonists for the treatment of conditions involving amyloid plaques” (Biogen Idec MA Inc., priority 2003, published 2007).

Experiment [1] deals with T1, human NgR1 (Homo sapiens, UniProt Q9BZR6).
T1 construct: expressed in transfected cells; host or cells: SKNMC cells
T1 sequence (Q9BZR6 27-447): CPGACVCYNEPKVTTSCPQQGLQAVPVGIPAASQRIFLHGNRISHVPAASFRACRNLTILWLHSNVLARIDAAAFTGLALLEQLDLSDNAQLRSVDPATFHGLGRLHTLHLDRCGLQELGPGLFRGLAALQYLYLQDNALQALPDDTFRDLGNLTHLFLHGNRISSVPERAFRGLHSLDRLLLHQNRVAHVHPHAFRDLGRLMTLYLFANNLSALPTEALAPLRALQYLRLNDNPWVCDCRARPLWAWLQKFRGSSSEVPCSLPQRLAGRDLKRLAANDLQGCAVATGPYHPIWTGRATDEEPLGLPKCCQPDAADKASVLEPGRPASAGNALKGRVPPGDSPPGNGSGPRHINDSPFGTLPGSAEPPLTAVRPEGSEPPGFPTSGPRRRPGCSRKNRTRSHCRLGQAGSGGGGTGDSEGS
In words: Aβ42 effect on Biotin-Aβ40 binding to SKNMC cells expressing human NGR1. As to conditions: SKNMC cells expressing human NGR1, dose-dependent.

The target in the next experiment is T2, sNgR310 (Rattus norvegicus, UniProt Q99M75, A303T/C287S/C43R/E284G/T53A).
T2 sequence (Q99M75 27-310 C43R/T53A/E284G/C287S/A303T): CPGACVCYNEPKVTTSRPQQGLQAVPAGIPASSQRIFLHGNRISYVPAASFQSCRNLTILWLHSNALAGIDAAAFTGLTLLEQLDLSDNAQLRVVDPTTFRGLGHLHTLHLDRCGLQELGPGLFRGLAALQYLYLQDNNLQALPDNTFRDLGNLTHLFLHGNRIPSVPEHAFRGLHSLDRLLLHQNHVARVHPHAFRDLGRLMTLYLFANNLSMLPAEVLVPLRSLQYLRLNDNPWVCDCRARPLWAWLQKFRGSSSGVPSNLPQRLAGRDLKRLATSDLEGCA
In words: Aβ42 effect on Biotin-Aβ40 binding to immobilized sNgR310. The note with it: dose-dependent, streptavidin HRP. An excerpt: We examined whether the interaction between NgR and Aβ peptide has a role in aggregate formation. sNgR310 was immobilized on microtiter plates and Biotin-Aβ40 was applied along with Aβ42 peptide.

For a further experiment, the target named is T3, sNgR310-Fc (Rattus norvegicus, UniProt Q99M75, A303T/C287S/C43R/E284G/T53A).
T3 construct: Fc portion of IgG (rat)
T3 sequence (Q99M75 27-310 C43R/T53A/E284G/C287S/A303T): T2 sequence (Q99M75 27-310 C43R/T53A/E284G/C287S/A303T)
Put plainly: Competition of free Aβ with NgR ligands on sNgR310-Fc coated wells. As to conditions: competition assay. The experiment is classed as binding. As for the experimental part:
We analyzed whether Aβ (1-28) binding competed for NgR binding with other known ligands for NgR by allowing 250 nM soluble AP-Aβ(1-28) or AP-Nogo (1-33) to bind to wells coated with purified sNgR310-Fc in the presence of various concentrations of competing free Aβ. […] We observed that the Aβ peptides bind to both sNgR310-Fc and sNgR344-Fc. […] However, Aβ(1-28) displaced Aβ-AP binding but not AP-Nogo-66 (1-33) or AP-OMgp binding in competition assays. The Aβ peptide may begin to displace AP-MAG very slightly at high concentrations in our experiments. Thus, the Aβ binding site on NgR appears largely distinct from that for the myelin ligands NogoA, OMgp and MAG. Consistent with this, the presence of Aβ had little effect on myelin or Nogo-66 inhibition of neurite outgrowth.

The target in another experiment is T4, NgR (Homo sapiens, UniProt Q9BZR6).
T4 construct: expressed in transfected cells; host or cells: COS cells
T4 sequence (Q9BZR6 27-473): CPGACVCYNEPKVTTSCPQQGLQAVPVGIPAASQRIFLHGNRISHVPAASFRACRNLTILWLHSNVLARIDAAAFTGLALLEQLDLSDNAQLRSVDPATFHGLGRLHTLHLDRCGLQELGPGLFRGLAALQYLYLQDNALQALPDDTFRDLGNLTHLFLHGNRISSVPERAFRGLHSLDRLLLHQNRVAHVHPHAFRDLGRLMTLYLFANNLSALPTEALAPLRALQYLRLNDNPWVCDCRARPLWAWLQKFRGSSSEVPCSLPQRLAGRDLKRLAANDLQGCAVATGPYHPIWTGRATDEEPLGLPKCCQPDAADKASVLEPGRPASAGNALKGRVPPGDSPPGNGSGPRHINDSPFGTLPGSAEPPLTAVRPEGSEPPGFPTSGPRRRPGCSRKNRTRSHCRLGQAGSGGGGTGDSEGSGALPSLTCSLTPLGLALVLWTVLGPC
In words: AP-Aβ(1-28) fusion protein binding to NgR-expressing COS cells. As to conditions: not to vector-transfected COS cells. An excerpt: We then investigated whether the Aβ region of APP is involved in its interaction with NgR—including whether the fibrillogenic Aβ42-3 peptide binds NgR. We created two fusion protein constructs containing alkaline phosphatase (AP) and the hydrophilic region of Aβ (amino acids 1-28) by fusing the coding sequence in frame with the signal sequence-6×His-placental alkaline phosphatase (AP) sequence of the vector pAP-6 (Nakamura et al., Neuron 2: 1093-1100, 1988). The AP-Aβ and Aβ-AP proteins both bound to NgR-expressing COS cells but not to vector-transfected COS cells. This binding was saturable with an apparent Kd of 60 nM. The interaction also was detected using purified Biotin-Aβ(1-40) in an ELISA-type assay with immobilized NgR.

For the next experiment, the target named is T5, NgR2 (Homo sapiens, UniProt Q86UN3).
T5 sequence (Q86UN3 47-390): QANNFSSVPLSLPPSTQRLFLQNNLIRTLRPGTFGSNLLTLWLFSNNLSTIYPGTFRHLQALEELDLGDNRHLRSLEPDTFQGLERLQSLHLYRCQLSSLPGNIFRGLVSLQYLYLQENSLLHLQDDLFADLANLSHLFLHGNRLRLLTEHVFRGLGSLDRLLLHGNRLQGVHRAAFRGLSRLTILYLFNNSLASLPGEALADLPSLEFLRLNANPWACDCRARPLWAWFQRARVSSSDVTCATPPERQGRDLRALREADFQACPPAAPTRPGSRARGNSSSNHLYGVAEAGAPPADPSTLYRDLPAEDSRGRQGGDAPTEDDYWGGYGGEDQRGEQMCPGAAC
In words: Aβ-AP binding specificity, NgR2. An excerpt:
(§1) The specificity and selectivity of the Aβ(1-28) interaction with NgR was probed in several ways. The interaction was specific for NgR1 because neither NgR2 or NgR3—which share sequence similarity with NgR—bound Aβ-AP. Further, we observed species specificity: human NgR binds human AB to a greater extent than mouse NgR binds human AB or human NgR binds mouse AB or mouse NgR binds mouse Aβ.

The next experiment addresses T6, NgR3 (Homo sapiens, UniProt Q86UN2).
T6 sequence (Q86UN2 25-420): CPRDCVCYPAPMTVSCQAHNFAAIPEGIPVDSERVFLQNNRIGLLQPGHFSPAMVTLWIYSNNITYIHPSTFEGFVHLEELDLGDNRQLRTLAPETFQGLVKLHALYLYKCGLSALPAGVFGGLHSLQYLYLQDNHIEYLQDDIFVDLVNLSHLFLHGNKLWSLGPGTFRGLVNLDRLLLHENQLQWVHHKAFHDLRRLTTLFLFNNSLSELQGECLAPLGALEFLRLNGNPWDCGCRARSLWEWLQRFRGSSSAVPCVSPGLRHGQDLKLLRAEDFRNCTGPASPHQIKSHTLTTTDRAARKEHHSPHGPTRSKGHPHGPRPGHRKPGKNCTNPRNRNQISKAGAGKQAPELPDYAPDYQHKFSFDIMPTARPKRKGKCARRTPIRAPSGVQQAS
Put plainly: Aβ-AP binding specificity, NgR3.
Excerpt: as §1

Experiment [2] addresses T1, human NgR1. Put plainly: Fluo-Aβ42 binding to SKNMC cells expressing human NgR-1. The note with it: 2 h at 4° C.

Consider “Aβ42 peptide: fibrillogenic Aβ42 peptide”, for which the “effect on binding of Biotin-Aβ40 peptide to cells” value with human NgR1 [1] is “enhanced”. Also, the “effect on binding of Biotin-Aβ40 peptide to immobilized sNgR310” value with sNgR310 was “enhanced”.

Take “Aβ(1-28): free Aβ peptide, amino acids 1-28, used as competitor”: in the experiment with sNgR310-Fc, the “displacement of AP-Nogo-66 (1-33) binding” value is “not”, the “displacement of AP-OMgp binding” value was “not” and the “displacement of Aβ-AP binding” value was “displaced”.

As to “Aβ-AP: fusion protein of the hydrophilic region of Aβ (amino acids 1-28) and alkaline phosphatase (AP)”, in the experiment with NgR, the “binding to NgR-expressing COS cells” value was “bound”. The “binding to NgR2” value with NgR2 is “neither”. Further, in the experiment with NgR3, the “binding to NgR3” value is reported as “neither”.

Turning to “Fluo-Aβ42: labelled fibrillogenic Aβ42 peptide”, the “binding to SKNMC cells expressing human NgR-1” value with human NgR1 [2] is “binds”.
